From patent US20230356187A1

Experiments:
[1] = target: purified antibody (KBIO, Korea); experiment: 1 ml resin column; purified antibody bound, eluted and measured after 15 cycles of 0.3 M NaOH; reference Capto L
[2] = target: purified antibody (KBIO, Korea); experiment: 1 ml resin column; purified antibody bound, eluted and measured after 15 cycles of 0.3 M NaOH (15 min each)

B1: variant protein 4mBF (mBF tetramer) (designed binder)
chain: MPKEEVTIKANLIFADGKTQTAEFKGTFGEATAEAYRYADLLAPENGKYTVDVADKGYTLNIKFAGKEKTPEEMPKEEVTIKANLIFADGKTQTAEFKGTFGEATAEAYRYADLLAPENGKYTVDVADKGYTLNIKFAGKEKTPEEMPKEEVTIKANLIFADGKTQTAEFKGTFGEATAEAYRYADLLAPENGKYTVDVADKGYTLNIKFAGKEKTPEEMPKEEVTIKANLIFADGKTQTAEFKGTFGEATAEAYRYADLLAPENGKYTVDVADKGYTLNIKFAGKEKTPEE
Question: For B1, which residual activity relative to Cytiva's product (Capto L) [1] is on record?
Answer: Its residual activity relative to Cytiva's product (Capto L) is 1.4 times.

Question: And the residual activity (antibody recovered after 15 alkali treatments, relative to the initial binding) [2]?
Answer: Its residual activity (antibody recovered after 15 alkali treatments, relative to the initial binding) is 43.5%.
